Reference: the supplement of paper PMC10126150
± gives the standard deviation of the averaged measurements.

system: ATP; assay: switch fluorescence ratio, 500 uM ATP over buffer (Cy3 cluster intensity, sum of 5 cycles each) (fold (ratio)); higher = stronger signal-on switching upon ATP binding; sequences stand for … in TCGTCGGCAGCGTCAGATGTGTATAAGAGACAGTTTTTTTTTTTTTTTTTTTTTTTTT…TC; conditions: aptamer strand: ATP DNA aptamer (quencher-CACCTGGGGGAGTATTGCGGAGGAAGG + anchor), 100 nM annealed; ATP concentration: 500 uM
How it was run: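 After annealing to 100 nM quencher-labelled ATP aptamer, Cy3-labelled switching-strand clusters on a modified Illumina MiSeq flow-cell were imaged in selection buffer. A second image followed after 15 min with 500 uM ATP at 22 °C, and five such buffer/ATP cycles were done, each separated by NaOH stripping and re-annealing. The fluorescence ratio, averaged per switch-domain sequence, is summed target-cycle over summed buffer-cycle Cy3 intensity per cluster, with clusters outside 100-1000 RFU excluded.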
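Also: ATP exposure 15 min at 22 °C before imaging.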

Row | Sequence | switch fluorescence ratio
1 | CCTGGGGGTG | 1.14 ± 0.074
2 | TCGATGGGGA | 1.02 ± 0.015
3 | CGCGTCTGGG | 1.01 ± 0.042
4 | CGATTGGGGC | 0.992 ± 0.013
5 | TGGTTAAAAA | 0.98 ± 0.049
6 | GAACCGGGTT | 0.9987 ± 0.0079
7 | GGGTAGCCTG | 0.982 ± 0.02
8 | TACGTGTGGG | 1.02 ± 0.038
9 | TTTGATGTTT | 1 ± 0.031
10 | ATCATGCATT | 0.989 ± 0.025
11 | TTTTTAAAGC | 0.995 ± 0.038
12 | ACAGGATCCG | 1.01 ± 0.00021
13 | GCATGTGTTC | 0.995 ± 0.038
14 | GGAGGGGCTG | 1.02 ± 0.085
15 | ATATGGCACG | 1.032 ± 0.0014
16 | TTCTCGTTCT | 0.996 ± 0.045
17 | CTAACTCGC | 1.04 ± 0.011
18 | GCGGGATATG | 0.994 ± 0.019
19 | TCGGTGGAGC | 1.02 ± 0.13
20 | AGGATGAGCT | 0.969 ± 0.032
21 | AAGGTTAATG | 1 ± 0.016
22 | ATTTATGTTT | 0.979 ± 0.03
23 | ATTAGGTATG | 0.969 ± 0.016
24 | TAAAGCTTAA | 1.05 ± 0.041
25 | GATCCAATGT | 0.993 ± 0.019

Row | Sequence | switch fluorescence ratio
26 | CTAGCTTACT | 1.36 ± 0.065
27 | GGAGAAATTT | 0.9816 ± 0.0062
28 | ATAAAAGGAT | 0.973 ± 0.014
29 | AACATGTCCT | 1.04 ± 0.031
30 | CAAGAAATCT | 1.0078 ± 0.0005
31 | AGGAGGCATG | 0.986 ± 0.043
32 | GCATCAAAGG | 0.995 ± 0.013
33 | TAGCGAGGGG | 0.98529 ± 0.00026
34 | GAAGGGTCTG | 0.969 ± 0.012
35 | GCATTTATGG | 0.949 ± 0.022
36 | CGGCGTGTTT | 1.052 ± 0.0087
37 | TTTTAAAATT | 1 ± 0.035
38 | TATTGATGGT | 0.994 ± 0.019
39 | AGAATTGTAC | 1.05 ± 0.014
40 | AAGGAAGAAA | 0.974 ± 0.068
41 | CCGGGTCTGG | 0.992 ± 0.013
42 | TTTTCTCAGC | 1.05 ± 0.029
43 | AATACCATCG | 1.05 ± 0.033
44 | GACTGACTGG | 0.996 ± 0.018
45 | TCAGTTTTAT | 0.9726 ± 0.0074
46 | CATCGTGCTG | 0.978 ± 0.052
47 | GGTTTCTTAG | 0.98 ± 0.018
48 | TTAGGCAGGG | 1 ± 0.016
49 | CGCTGAATTT | 0.975 ± 0.03
50 | TAGCTCCGTA | 1.09 ± 0.036

Row | Sequence | switch fluorescence ratio
51 | ACCAAGTATC | 1.04 ± 0.036
52 | AGGGGTGAAA | 0.987 ± 0.021
53 | TACTTATATG | 1.03 ± 0.016
54 | AGTGAATCTG | 0.992 ± 0.085
55 | TTGGGCCCCT | 0.9967 ± 0.0024
56 | TTGCTCTGTT | 0.988 ± 0.023
57 | CGACGGGCAG | 1.01 ± 0.042
58 | GGGTTTTATG | 0.991 ± 0.033
59 | GTCGTATTAG | 0.995 ± 0.022
60 | ATTCAAAAAA | 0.999 ± 0.039
61 | GAAGTAGTTA | 1.006 ± 0.0082
62 | ATGAAAATAC | 1.01 ± 0.03
63 | TATTTTTTTT | 1.01 ± 0.043
64 | GTTTGTGGGA | 0.974 ± 0.019
65 | ATATTTGGGC | 0.975 ± 0.034
66 | TCACTATACT | 1.41 ± 0.085
67 | CAGGTAGGGT | 1.01 ± 0.052
68 | TGTTTAACAG | 1.03 ± 0.05
69 | TAAGTTGGTA | 0.9521 ± 0.0054
70 | TCGCAGGCCT | 1.033 ± 0.003
71 | GGAAAGGTTT | 1.01 ± 0.064
72 | TACAATTTCG | 1.01 ± 0.032
73 | ACTGTAGTTT | 1.11 ± 0.07
74 | ACTCTTTTAC | 1.291 ± 0.0056
75 | GAGTGATAAG | 1 ± 0.017

Row | Sequence | switch fluorescence ratio
76 | TAATTGAGGC | 1.04 ± 0.017
77 | AAGACTCACG | 1.05 ± 0.052
78 | CGTTCGCTTA | 1.96 ± 0.037
79 | CGTTCCATTG | 1 ± 0.012
80 | GTTTTAGGTT | 0.993 ± 0.023
81 | TTTTTGTT | 0.99 ± 0.0068
82 | AGACCGTGTT | 1.03 ± 0.054
83 | GAGGGAGGTG | 1.02 ± 0.018
84 | TACAACTTTC | 1.08 ± 0.051
85 | GCTCGAGATT | 1.026 ± 0.0027
86 | TTTTGCGGTG | 1.01 ± 0.017
87 | GGGAGAATTA | 1.037 ± 0.0022
88 | AAAACTGAGC | 1.08 ± 0.031
89 | CACGTGCCAG | 0.985 ± 0.043
90 | AGGTAGGTTT | 0.99 ± 0.017
91 | TTGTATTTGT | 0.999 ± 0.031
92 | GCTCCGGCGG | 1.24 ± 0.045
93 | GGGTTGGGTT | 1.05 ± 0.18
94 | TTAGTTGGTC | 0.996 ± 0.029
95 | GGGGATGGAA | 1.02 ± 0.013
96 | AGGTGATATG | 1.0171 ± 0.00075
97 | TCCGATTACG | 1.22 ± 0.037
98 | CGTTATACGG | 1.043 ± 0.0037
99 | GTTGTGAGGG | 0.981 ± 0.018
100 | CTGATAACAT | 1.02 ± 0.018

Row | Sequence | switch fluorescence ratio
101 | GCTTTGGGGA | 1 ± 0.025
102 | TTAGGAGTGT | 0.9863 ± 0.0051
103 | CGGTCTGTGG | 0.995 ± 0.021
104 | AGGTGGCATT | 1.04 ± 0.015
105 | ATTTCCACAA | 1.1 ± 0.03
106 | AAGAGGTTTG | 0.949 ± 0.013
107 | GGGTGATTAA | 0.994 ± 0.017
108 | GTGGGTATTA | 1 ± 0.023
109 | CGATGTGCCC | 0.983 ± 0.024
110 | CGATTAGTTA | 0.998 ± 0.023
111 | AGATTTCACT | 1.01 ± 0.016
112 | TCTGCTTTTG | 1.05 ± 0.02
113 | CCTCTCCGTA | 1.32 ± 0.083
114 | TTTTCGAGGT | 1.17 ± 0.24
115 | AGCAGGGGGT | 1.05 ± 0.044
116 | TTTTTACGGA | 1.02 ± 0.043
117 | TGCGGGATGA | 1.04 ± 0.018
118 | TATCATAGCC | 1.02 ± 0.027
119 | TCAAACGTAG | 0.9793 ± 0.0085
120 | TCCCTTGGTT | 1.05 ± 0.054
121 | CGGGCGGACA | 0.974 ± 0.04
122 | CGAGGTACTG | 1.01 ± 0.0034
123 | ATAAATTTGC | 0.968 ± 0.045
124 | GGTGCTGGCA | 0.956 ± 0.051
125 | TGGGGGTTAG | 1.01 ± 0.021

Row | Sequence | switch fluorescence ratio
126 | TCGGTGCTGG | 0.977 ± 0.018
127 | CGCTGTCACG | 1.0556 ± 0.00068
128 | CAGTTCGTGT | 1.02 ± 0.022
129 | TTACAGCATT | 1.07 ± 0.067
130 | ATTATAGTAA | 0.9886 ± 0.0022
131 | CTCGATAGGA | 1.02 ± 0.0083
132 | TTTTCGTTGT | 0.996 ± 0.018
133 | GCGCGCGACT | 1.002 ± 0.0092
134 | GGTAGGTAGG | 1.01 ± 0.038
135 | CGCGGTGTCC | 1.02 ± 0.011
136 | AGCCCACTCG | 1.04 ± 0.05
137 | TAAGTTATGG | 0.997 ± 0.02
138 | AGACGGGGGT | 0.997 ± 0.028
139 | AGCTTCGTTT | 1 ± 0.031
140 | CTTCGGGGGA | 0.992 ± 0.01
141 | TTGGGGCAGT | 0.997 ± 0.035
142 | TAGGATATTT | 1 ± 0.02
143 | AGGTTTTGGA | 0.98 ± 0.021
144 | TTTATGAGAG | 1.08 ± 0.092
145 | GAGTTATTTT | 0.976 ± 0.017
146 | TTTAATGTGG | 0.999 ± 0.03
147 | AAGGGGAAAG | 0.998 ± 0.025
148 | ATCGGAACCT | 2.15 ± 0.1
149 | GGGATGGGCT | 1.01 ± 0.014
150 | ATAAACCTTA | 1.29 ± 0.28

Row | Sequence | switch fluorescence ratio
151 | CGAATTAAAC | 0.99 ± 0.029
152 | AGTCCAGTTT | 0.986 ± 0.013
153 | GGGGGCCTAG | 0.981 ± 0.035
154 | GCTATATGTG | 0.98 ± 0.069
155 | GTTTAAAGTC | 0.989 ± 0.059
156 | CCGGGTGCTA | 2.36 ± 1.4
157 | CCAGGGGGGA | 1.18 ± 0.048
158 | TTTTGTTCGG | 0.99 ± 0.029
159 | TCATATTATC | 1 ± 0.029
160 | TCGTGCGGGT | 1.001 ± 0.0081
161 | ACTGTTGTTG | 1.006 ± 0.01
162 | ACGAGACGC | 1.16 ± 0.031
163 | GGCTTTTAAC | 0.9827 ± 0.0013
164 | TCTTTGACGC | 1.21 ± 0.013
165 | GAGTGGAGTG | 1.02 ± 0.079
166 | CAAAGATAGG | 0.996 ± 0.018
167 | TTGGAAGGGA | 1 ± 0.015
168 | TAGCCTTTTT | 0.955 ± 0.015
169 | CCTTTTATTC | 1.01 ± 0.03
170 | TCGGTTGTGA | 0.999 ± 0.011
171 | CAAAAAGTTT | 1.05 ± 0.097
172 | TTAATCTTTT | 1.06 ± 0.14
173 | TCATATTGGA | 0.979 ± 0.015
174 | GGGGGCAGTT | 1 ± 0.013
175 | CGGATTCGAG | 0.98 ± 0.035

Row | Sequence | switch fluorescence ratio
176 | GGGTGCAGCG | 0.993 ± 0.03
177 | TTTCGGGCAT | 1.19 ± 0.31
178 | GTTGTTTTTA | 0.987 ± 0.01
179 | GTGAGATGGA | 0.953 ± 0.03
180 | ATTAGGATTG | 1 ± 0.053
181 | GGGTGGCTCG | 0.997 ± 0.046
182 | CAGGAGTCGG | 1.01 ± 0.014
183 | AGACTGGTAC | 1.156 ± 0.0022
184 | TAGGGGTGCG | 1 ± 0.038
185 | GGGAATTAAT | 1.04 ± 0.023
186 | AAAATTGGAA | 1 ± 0.03
187 | GATTGAGGAA | 0.9864 ± 0.0061
188 | CGAAGGTTTT | 1.02 ± 0.015
189 | TTTTGTAAGG | 1.011 ± 0.0043
190 | TTTATTGCGT | 1.01 ± 0.048
191 | GTTATATGTG | 0.982 ± 0.055
192 | GTTGTTGAGT | 0.997 ± 0.0024
193 | AGGTCCTTCA | 1.29 ± 0.046
194 | GTTGATAGCG | 0.991 ± 0.025
195 | GCGGAAGGAG | 1 ± 0.016
196 | ATACTTGAAC | 1.034 ± 0.0012
197 | GAGGGCGGGG | 1.05 ± 0.077
198 | CTCCGTGGGG | 1.47 ± 0.042
199 | TCGGTTCTAC | 0.9985 ± 0.0099
200 | CTTGTCTTAA | 1.02 ± 0.029
